# Measured values reported in the supplement of paper PMC9112550, “Optimization of the antimicrobial peptide Bac7 by deep mutational scanning” (BMC Biology, 2022).
# Tested on: Escherichia coli TOP10
# Test: shrunken log2 fold change of peptide-encoding DNA abundance (4.5 h post-induction vs induction); higher = less antimicrobial activity (less host growth inhibition)
# Conditions: time post-induction: 4.5 h; library: site-saturation at positions 5, 18, 19, 20
# 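Note: peptides expressed intracellularly from a pBAD plasmid library in pooled LB shake-flask culture, induced with 0.3% L-arabinose, DNA abundance read by NGS, three biological replicates, DESeq2 with apeglm shrinkage.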
row,Sequence,shrunken log2 fold change
1,RRIRNRPPRLPRPRPRPAWSPRP,0.0515
2,RRIRSRPPRLPRPRPRPFCHPRP,-0.162
3,RRIRQRPPRLPRPRPRPVDYPRP,0.0237
4,RRIRSRPPRLPRPRPRPNAGPRP,0.0362
5,RRIRGRPPRLPRPRPRPNQAPRP,-0.0774
6,RRIRIRPPRLPRPRPRPTDSPRP,-0.237
7,RRIRSRPPRLPRPRPRPMWLPRP,0.0415
8,RRIRWRPPRLPRPRPRPQWAPRP,0.829
9,RRIRPRPPRLPRPRPRPFCDPRP,-0.233
10,RRIRFRPPRLPRPRPRPSGVPRP,0.0832
11,RRIRQRPPRLPRPRPRPLLFPRP,-0.0219
12,RRIRARPPRLPRPRPRPWYTPRP,-0.514
13,RRIRDRPPRLPRPRPRPTDKPRP,-0.118
14,RRIRFRPPRLPRPRPRPESMPRP,-0.188
15,RRIRKRPPRLPRPRPRPRMFPRP,0.112
16,RRIRNRPPRLPRPRPRPSHEPRP,0.00187
17,RRIRTRPPRLPRPRPRPCSYPRP,-0.129
18,RRIRQRPPRLPRPRPRPGGHPRP,0.201
19,RRIRMRPPRLPRPRPRPDHRPRP,-0.279
20,RRIRFRPPRLPRPRPRPWMAPRP,-0.254
21,RRIRERPPRLPRPRPRPHDYPRP,0.0456
22,RRIRIRPPRLPRPRPRPRVDPRP,0.061
23,RRIRTRPPRLPRPRPRPAIDPRP,-0.206
24,RRIRERPPRLPRPRPRPNNWPRP,-0.524
25,RRIRSRPPRLPRPRPRPWLCPRP,-0.0753

row,Sequence,shrunken log2 fold change
1,RRIRYRPPRLPRPRPRPVHNPRP,-0.353
2,RRIRNRPPRLPRPRPRPVLGPRP,0.00359
3,RRIRPRPPRLPRPRPRPHVHPRP,-0.254
4,RRIRWRPPRLPRPRPRPSPYPRP,-0.25
5,RRIRHRPPRLPRPRPRPCMSPRP,0.12
6,RRIRLRPPRLPRPRPRPPPMPRP,0.966
7,RRIRQRPPRLPRPRPRPLLPPRP,0.0127
8,RRIRQRPPRLPRPRPRPHHDPRP,-0.000328
9,RRIRMRPPRLPRPRPRPRIMPRP,0.049
10,RRIRQRPPRLPRPRPRPKTKPRP,-0.254
11,RRIRERPPRLPRPRPRPGAWPRP,-0.0396
12,RRIRMRPPRLPRPRPRPYNHPRP,-0.491
13,RRIRKRPPRLPRPRPRPVNFPRP,-0.0174
14,RRIRARPPRLPRPRPRPFQTPRP,-0.0176
15,RRIRWRPPRLPRPRPRPYYEPRP,-0.742
16,RRIRNRPPRLPRPRPRPGSGPRP,0.179
17,RRIRFRPPRLPRPRPRPNFSPRP,-0.283
18,RRIRDRPPRLPRPRPRPWYAPRP,0.00564
19,RRIRERPPRLPRPRPRPWIYPRP,0.013
20,RRIRPRPPRLPRPRPRPACGPRP,0.839
21,RRIRTRPPRLPRPRPRPGWYPRP,-0.23
22,RRIRMRPPRLPRPRPRPVDSPRP,0.216
23,RRIRLRPPRLPRPRPRPDPLPRP,0.172
24,RRIRNRPPRLPRPRPRPVRLPRP,0.0814
25,RRIRKRPPRLPRPRPRPYYCPRP,0.32

row,Sequence,shrunken log2 fold change
1,RRIRMRPPRLPRPRPRPGQAPRP,0.34
2,RRIRIRPPRLPRPRPRPAKNPRP,2.21
3,RRIRYRPPRLPRPRPRPHRMPRP,-1.51
4,RRIRHRPPRLPRPRPRPQYHPRP,-0.972
5,RRIRWRPPRLPRPRPRPAGDPRP,0.363
6,RRIRGRPPRLPRPRPRPQWPPRP,0.475
7,RRIRFRPPRLPRPRPRPSSKPRP,-0.32
8,RRIRFRPPRLPRPRPRPSIAPRP,-0.271
9,RRIRCRPPRLPRPRPRPWGAPRP,0.0457
10,RRIRNRPPRLPRPRPRPECYPRP,-0.329
11,RRIRWRPPRLPRPRPRPHGPPRP,0.0026
12,RRIRYRPPRLPRPRPRPGPCPRP,-0.227
13,RRIRWRPPRLPRPRPRPYKFPRP,-0.22
14,RRIRHRPPRLPRPRPRPTMLPRP,-0.468
15,RRIRDRPPRLPRPRPRPYCAPRP,-0.204
16,RRIRNRPPRLPRPRPRPTEFPRP,-0.043
17,RRIRQRPPRLPRPRPRPKPVPRP,0.407
18,RRIRCRPPRLPRPRPRPQKNPRP,-0.281
19,RRIRARPPRLPRPRPRPTVVPRP,0.238
20,RRIRHRPPRLPRPRPRPQTQPRP,-0.145
21,RRIRDRPPRLPRPRPRPALFPRP,0.99
22,RRIRERPPRLPRPRPRPRSGPRP,-0.049
23,RRIRARPPRLPRPRPRPFAMPRP,0.236
24,RRIRWRPPRLPRPRPRPGREPRP,0.412
25,RRIRIRPPRLPRPRPRPEFFPRP,0.179

row,Sequence,shrunken log2 fold change
1,RRIRNRPPRLPRPRPRPSVEPRP,-0.254
2,RRIRTRPPRLPRPRPRPAIEPRP,0.0358
3,RRIRWRPPRLPRPRPRPCKWPRP,-0.275
4,RRIRMRPPRLPRPRPRPDYRPRP,-0.146
5,RRIRLRPPRLPRPRPRPENCPRP,-0.0062
6,RRIRMRPPRLPRPRPRPMCIPRP,-0.296
7,RRIRCRPPRLPRPRPRPLNAPRP,-0.255
8,RRIRWRPPRLPRPRPRPILPPRP,-0.0759
9,RRIRLRPPRLPRPRPRPFGKPRP,-0.168
10,RRIRKRPPRLPRPRPRPVNTPRP,-0.207
11,RRIRMRPPRLPRPRPRPCPSPRP,0.0607
12,RRIRYRPPRLPRPRPRPASAPRP,0.0949
13,RRIRSRPPRLPRPRPRPWWDPRP,-0.137
14,RRIRARPPRLPRPRPRPCVYPRP,0.121
15,RRIRWRPPRLPRPRPRPNQEPRP,-0.119
16,RRIRLRPPRLPRPRPRPWIQPRP,-0.355
17,RRIRSRPPRLPRPRPRPTCGPRP,0.468
18,RRIRCRPPRLPRPRPRPCNSPRP,-0.0476
19,RRIRDRPPRLPRPRPRPAQHPRP,0.288
20,RRIRERPPRLPRPRPRPGMYPRP,-0.0383
21,RRIRIRPPRLPRPRPRPNPRPRP,-0.225
22,RRIRSRPPRLPRPRPRPCNRPRP,0.0326
23,RRIRNRPPRLPRPRPRPFFMPRP,0.0606
24,RRIRPRPPRLPRPRPRPDYSPRP,-0.815
25,RRIRLRPPRLPRPRPRPGPEPRP,0.685

row,Sequence,shrunken log2 fold change
1,RRIRCRPPRLPRPRPRPWWDPRP,0.00335
2,RRIRRRPPRLPRPRPRPEIRPRP,0.0292
3,RRIRARPPRLPRPRPRPYSVPRP,-0.248
4,RRIRIRPPRLPRPRPRPSDNPRP,-0.421
5,RRIRWRPPRLPRPRPRPQEWPRP,0.248
6,RRIRFRPPRLPRPRPRPPYPPRP,-0.0265
7,RRIRRRPPRLPRPRPRPLHDPRP,0.359
8,RRIRTRPPRLPRPRPRPPVGPRP,1.18
9,RRIRGRPPRLPRPRPRPRIMPRP,0.506
10,RRIRCRPPRLPRPRPRPLYCPRP,-0.593
11,RRIRYRPPRLPRPRPRPNQKPRP,-0.0988
12,RRIRGRPPRLPRPRPRPDKEPRP,0.208
13,RRIRFRPPRLPRPRPRPQKPPRP,0.121
14,RRIRVRPPRLPRPRPRPVDLPRP,0.0988
15,RRIRERPPRLPRPRPRPFIYPRP,-0.0998
16,RRIRCRPPRLPRPRPRPDMLPRP,-0.283
17,RRIRVRPPRLPRPRPRPHNSPRP,-0.23
18,RRIRDRPPRLPRPRPRPWITPRP,-0.123
19,RRIRFRPPRLPRPRPRPAHRPRP,0.418
20,RRIRDRPPRLPRPRPRPFMAPRP,0.035
21,RRIRNRPPRLPRPRPRPARWPRP,0.531
22,RRIRPRPPRLPRPRPRPHWGPRP,0.0167
23,RRIRDRPPRLPRPRPRPKCNPRP,-0.13
24,RRIRGRPPRLPRPRPRPNIDPRP,0.644
25,RRIRWRPPRLPRPRPRPTYYPRP,-0.463

row,Sequence,shrunken log2 fold change
1,RRIRWRPPRLPRPRPRPTGPPRP,0.217
2,RRIRNRPPRLPRPRPRPHLLPRP,-1.08
3,RRIRYRPPRLPRPRPRPAHNPRP,-0.409
4,RRIRHRPPRLPRPRPRPVHEPRP,-0.0609
5,RRIRMRPPRLPRPRPRPPHPPRP,0.873
6,RRIRYRPPRLPRPRPRPYQFPRP,-0.183
7,RRIRCRPPRLPRPRPRPPRIPRP,0.48
8,RRIRLRPPRLPRPRPRPYCAPRP,-0.151
9,RRIRFRPPRLPRPRPRPFDWPRP,0.109
10,RRIRGRPPRLPRPRPRPIALPRP,0.16
11,RRIRTRPPRLPRPRPRPMEDPRP,-0.00968
12,RRIRPRPPRLPRPRPRPSADPRP,-0.0256
13,RRIRERPPRLPRPRPRPIGTPRP,-0.976
14,RRIRPRPPRLPRPRPRPSAFPRP,0.191
15,RRIRKRPPRLPRPRPRPNQVPRP,-0.0821
16,RRIRERPPRLPRPRPRPSFIPRP,-0.906
17,RRIRWRPPRLPRPRPRPGPLPRP,0.0252
18,RRIRVRPPRLPRPRPRPGWEPRP,0.123
19,RRIRRRPPRLPRPRPRPHQEPRP,-0.0374
20,RRIRCRPPRLPRPRPRPFRFPRP,-0.83
21,RRIRTRPPRLPRPRPRPIFNPRP,-0.608
22,RRIRGRPPRLPRPRPRPWATPRP,0.959
23,RRIRNRPPRLPRPRPRPLGAPRP,0.413
24,RRIRRRPPRLPRPRPRPFHMPRP,-0.0949
25,RRIRMRPPRLPRPRPRPFIEPRP,-0.0583
